From the DeepSol protein solubility set

Test: soluble on expression in E. coli; label from the status in PepcDB or PDB records
In the case of “QTLARVDLAYDDYDGIFDCEYAYKAWRDDCFRTAERGRGPVLHEDMTIASIGKDGKPIYTKEQYSIGSRTSRIYWRIYNKALEQKLANTGLVWYRSEVELKKWNVDVLLNPAGAYAALNDFAASISTAKKFNTKPVPTKRAALDLLASAHWMRRQYGKILNSLIEFHEGDIETVVGSLVRDGTKFTFPDTYG”, the “soluble on expression in E. coli” value is reported as “not soluble”.
For “QVKPFSFVRDTDPVQLVNFLQSEHPQTIAVVLSYLDPPVAAQILGALPEELQTEVLKRIALLERTSPEVVKEIERNLEKKISGFVSRTFSKVGGIDTAAEIMNNLDRTTEKKIMDKLVQENPELADEIRRRMFVFEDILKLDDRSIQLVLREVDTRDLALALKGASDELKEKIFKNMSKRAAALLKDELEYMGPVRLKDVEEAQQKIINIIRRLEEAGEIVIARGGGEELIM”, the “soluble on expression in E. coli” value was “soluble”.
With “QVQLKESGPGLVAPSQSLSITCTVSGFSLTDYGVDWVRQPPGKGLEWLGMIWGDGSTDYNSALKSRLSITKDNSKSQVFLKMNSLQTDDTARYYCVRDPADYGNYDYALDYWGQGTSVTVSSAKTTPPSVYPLAPGSAAQTNSMVTLGCLVKGYFPEPVTVTWNSGSLSSGVHTFPAVLQSDLYTLSSSVTVPSSTWPSETVTCNVAHPASSTKVDKKIVPRDCG” the “soluble on expression in E. coli” value was “soluble”.
With “QVQLQESGPGLVAPSQSLSITCTVSGFSLTGYGVNWVRQPPGKGLEWLGMIWGDGNTDYNSALKSRLSISKDNSKSQVFLKMNSLHTDDTARYYCARERDFRLDYWGQGTTLTVSS” the “soluble on expression in E. coli” value was “soluble”.
With “QVQLQQSGAELVKPGASVRMSCKASGYTFTNYNMYWVKQSPGQGLEWIGIFYPGNGDTSYNQKFKDKATLTADKSSNTAYMQLSSLTSEDSAVYYCARSGGSYRYDGGFDYWGQGTTVTVSS” the “soluble on expression in E. coli” value was “soluble”.
With “QVQLVESGGGTVPAGGSLRLSCAASGNTLCTYDMSWYRRAPGKGRDFVSGIDNDGTTTYVDSVAGRFTISQGNAKNTAYLQMDSLKPDDTAMYYCKPSLRYGLPGCPIIPWGQGTQVTVSS” the “soluble on expression in E. coli” value was “soluble”.
With “RCGAGEPWGNATNLGVPCLHWDEVPPFLERSPPASWAELRGQPHNFCRSPDGAGRPWCFYRNAQGKVDWGYCDCGQG” the “soluble on expression in E. coli” value was “soluble”.
For “REPLSFSLFSQPECVEQPERLAQVFALLVNAHYQTSPNDLFALLQDEAMTLFVAYQGEVCVGCVLAVREGELDAPTIEAIQLGTRRPKGHLTPVTLANQLGISQAARQSCWRILRIAVHPDCQRQGIGSQLLTHFIAQHHADYYATSFGVSEDLLPFWLANHFVPIKLGSHRDQASGCYSLLMVRG”, the “soluble on expression in E. coli” value was “not soluble”.
For “RGSHHHHHHGSFTPSGTTGTTKLTVTEECQVRVGDLTVAKTRGQLTDAAPIGPVTVQALGCNARQVALKADTDNFEQGKFFLISDNNRDKLYVNIRPMDNSAWTTDNGVFYKNDVGSWGGTIGIYVDGQQTNTPPGNYTLTLTGGYWAK”, the “soluble on expression in E. coli” value was “soluble”.
With “RKGHFSRCPKQYKHYCIKGRCRFVVAEQTPSCVCDEGYIGARCERVDLFY” the “soluble on expression in E. coli” value was “soluble”.
With “RKIFTNKCERAGCRQREMMKLTCERCSRNFCIKHRHPLDHDCSGEGHPTS” the “soluble on expression in E. coli” value was “soluble”.
In the case of “RKRPLVLTADRGRGKSSALGIACAQLLQHKPLRILLTAPSINAVEPVYQHAQRLLTDAKQMKKDRLEVGYGYIQFIAPDELLSSLPECDLLLVDEAAAIPVPMLKQITEHYHRLVFSSTIHGYEGCGRGFTLKFIEWLQQQRPGMKTYHMQQPIRWSVDDKLEMWLYDAFILN”, the “soluble on expression in E. coli” value is reported as “not soluble”.
In the case of “RKYAFEDVFRVGREDVNEMADRILNSLSSYKPRVGCIAFSGGVDSSLLAALYDAPLVSVTASDAEEEWLKTAARMLGKEIEILKVGESAIREVVDTVRKTIETGDFLQLSIAVPVYLTMQFAKSLGFTEIIFGQGADELFGGYKRYEGLSEHELEDALVKDLKSIGESNLVRDCKLAYKNEIKLVTPYLCWDVIDAALKIPPEYKVRREGGKVVRKYILRKIAEKFLPEEIAWRDKKAIQYSTGIAKI”, the “soluble on expression in E. coli” value is reported as “not soluble”.
In the case of “RLPFMAQYDRLGLTRSNTSCHNNTGKQCLWGDTEKQPELLVLGDSHADHYKTFFDAVGKKEKWSATMVSADACAYVEGYASRVFQNWAACRAVYRYAEEHLPRYSKVVLAMRWGSQMPENSRSLAYDAGFFQKFDRMLHKLSSEKQAVYLMADNLASSYNVQRAYILSSRIPGYRQALRPDDESTLKANARIRELAAKYPNVYIIDAAAYIPADFQIGGLPVYSDKDHINPYGGTELAKRFSEKQRFLDTRHNH”, the “soluble on expression in E. coli” value is reported as “not soluble”.
In the case of “RPLFAREGGIYAVLVCMQEYKTSVLVQQAGLAALKMLAVASSSEIPTFVTGRDSIHSLFDAQMTREIFASIDSATRPGSESLLLTVPAAVILMLNTEGCSSAARNGLLLLNLLLCNHHTLGDQIITQELRDTLFRHSGIAPRTEPMPTTRTILMMLLNRYSEPPGSPERAALETPIIQGQDGSPELLIRSLVGGPSAELLLDLERVLCREGSPGGAVRPLLKRLQQETQPFLLLLRTLDAPGPNKTLLLSVLRVITRLLDFPEAMVLPWHEVLEPCLNCLSGPSSDSEIVQELTCFLHRLASMHKDYAVVLCCLGAKEILSKVLDKHSAQLLLGCELRDLVTECEKYAQLYSNLTSSILAGCIQMVLGQIEDHRRTHQPINIPFFDVFLRHLCQGSSVEVKEDKCWEKVEVSSNPHRASKLTDHNPKTYWESNGSTGSHYITLHMHRGVLVRQLTLLVASEDSSYMPARVVVFGGDSTSCIGTELNTVNVMPSASRVILLENLNRFWPIIQIRIKRCQQGGIDTRVRGVEVLGPKPTFWPLFREQLCRRTCLFYTIRAQAWSRDIAEDHRRLLQLCPRLNRVLRHEQNFADRFLPDDEAAQALGKTCWEALVSPLVQNITSPDAEGVSALGWLLDQYLEQRETSRNPLSRAASFASRVRRLCHLLVHVEPPPGPSPEPSTRPFSKNSKGRDRSPAPSPVLPSSSLRNITQCWLSVVQEQVSRFLAAAWRAPDFVPRYCKLYEHLQRAGSELFGPRAAFMLALRSGFSGALLQQSFLTAAHMSEQFARYIDQQIQGGLIGGAPGVEMLGQLQRHLEPIMVLSGLELATTFEHFYQHYMADRLLSFGSSWLEGAVLEQIGLCFPNRLPQLMLQSLSTSEELQRQFHLFQLQRLDKLFLEQEDEEEKRLEEEEEEEEEEEAEKELFIEDPSPAISILVLSPRCWPVSPLCYLYHPRKCLPTEFCDALDRFSSFYSQSQNHPVLDMGPHRRLQWTWLGRAELQFGKQILHVSTVQMWLLLKFNQTEEVSVETLLKDSDLSPELLLQALVPLTSGNGPLTLHEGQDFPHGGVLRLHEPGPQRSGEALWLIPPQAYLNVEKDEGRTLEQKRNLLSCLLVRILKAHGEKGLHIDQLVCLVLEAWQKGPNPPGTLGHTVAGGVACTSTDVLSCILHLLGQGYVKRRDDRPQILMYAAPEPMGPCRGQADVPFCGSQSETSKPSPEAVATLASLSCLQAAP”, the “soluble on expression in E. coli” value is reported as “soluble”.
With “RPVWYGEPVDIQPEHRDMMLVVDLSGSMAEEDMKTSNGDFVDRLTAVKQVVSDFIDQRKGDRLGLVLFGDHAYLQTPLTFDRNTVREQLDRTVLNLVGQRTAIGEGLGLATKTFIESNAPQRTIILLSDGANTAGVLEPLEAAQLAKDNHAKIYTVGIGAGEMQVRGFFGKQTVNTARDLDEDTLTKIATMTGGQYFRARNADELAEIYQTI” the “soluble on expression in E. coli” value was “not soluble”.
With “RQEQRRTDHELREQLHFRQALIDAIPAPIYFMDTTGIFLGCNKAFEAFSGHTQDEIVGKTIYDLMPPSLAKHTDSADRELFEHGGIQIYESVISFADGALHDVIFYKATFTTTEKNIGGLVGTILDIT” the “soluble on expression in E. coli” value was “not soluble”.
With “RQRTASLIDTNHWLSRIIDLVPHPIFLKDHNGKYLLANIAQGELFGKKPEELLGKTDIDFVYNSDEYVVIKQSDDKVVSTRKTVVLPEQIVTLGDIKYYLYTSKVPLISPVDGELRILGVSINLT” the “soluble on expression in E. coli” value was “not soluble”.
For “RREMTSYSDIDLILLHPEGSIPSGLEHFWYPIWDAKIRLDYTVRTPKECADMISAEPTAALALLDISHCSGDPQLTATTRCVVLEQWRRELKKNFNDVTDTAIARWNRSGSVVDMTHPDLKHGRGGLRDIELIRALALGNLCDKRPLGEERQLLLNIRTMLHQHAGRARDVLDPEFAVDVALDLGCEDRYDLSRSLAKAARTIDDATNAALSTARNLLPRRSSVRKAVRRPVDIDVVEVDGTLALSRTPNLEDPSLVLRVAAASARTGMTISESAWKQLETVPSMPPT”, the “soluble on expression in E. coli” value was “not soluble”.
With “RRYWVVLDGNFEDYLKKFSAKSRNTLLRKIKRFAELSGGEIDWREYCKPEEMHEFYKLAMEVSQKTYQERLLDCGLPSDQQFQENMLALAAEDNVRGYLLFYQKKPIAYIYCPVHDGIALYEYVGHDPEYQRWSPGTLLQYFALQRMFTASHIKIFDFTEGEGAHKAFFATNNQYCADVYYFRR” the “soluble on expression in E. coli” value was “not soluble”.
In the case of “RSGKCVGDVIETVDSEEAMGDLKIVLAAIFARKFAGVNGEVTKEYLEGYKMLNIYITNACNLKCKHCFMLSGKKLENELTLEDWMKVLTSFKENGGEFVTFSGGEPLMFKNFPQIISHAHDLGLKSTVLSNGLLWSGKLIHDLALFIDEIQFSLDGVDEETNSMVRGSGHFEKVVDTIVKFANAGVKT”, the “soluble on expression in E. coli” value is reported as “not soluble”.
With “RSPICHLFSAINSSPFKIAPEKEQDLKTIVDDKKIIISVVSEPGFNIRVRKNESNNSHEIVLTVASLEYIWAFSNFFWVFTQEYSKSQKNNDEHFDLTGKNRLKKSDELLKWARKNLQTTGCESWPKKCPKPEAYLQGSEDSQVASEIFLCAIAWILHHEISHVVLQHPLVTTAFSTQEEREADSHATKWILGNLYESAPELKKRALGIATAVLCIQSLEVENYFCLQNTHPAAYERIYSNISCYPVGNEELIEALCTVMLQYLFHGKNINVNLDGESFSSILGDLLCDISRLTSN” the “soluble on expression in E. coli” value was “not soluble”.
With “RTEAGDAYYSKFANNTPLPALMVSRKKFGSSYVYDKSYKTWDVPIAEQMEQKAKINIFAVAEYTDTQKIKVTVKGKILEGNTLPKSMVQVYLLEDKLIAPQVDGNTTVENYEHNHVLRGAVNGIWGEEFVNLKDYLYTYAVEPLSGMSFVAENYSIVAFVYDVQTFEVYDVVHVKINPQSDGK” the “soluble on expression in E. coli” value was “soluble”.
For “RTEDLPKAVVFLEPQWYSVLEKDSVTLKCQGAYSPEDNSTQWFHNESLISSQASSYFIDAATVNDSGEYRCQTNLSTLSDPVQLEVHIGWLLLQAPRWVFKEEDPIHLRCHSWKNTALHKVTYLQNGKDRKYFHHNSDFHIPKATLKDSGSYFCRGLVGSKNVSSETVNITITQGL”, the “soluble on expression in E. coli” value was “soluble”.
In the case of “RVESLMTHRSDIIALDLDDPVDENLKKMIASGRSNFPVYERDLDDVIGIVSVKDVLAKLVESGKVDIRASVTKPLFAPEAITILKLLESFKETGMHIALITDEYGSVQGIITLHDILEAIVGDVRSLGEPEEEQI”, the “soluble on expression in E. coli” value is reported as “not soluble”.
In the case of “RWETHVYRAVKDLLVGLGFTEVLQLVLTSPRLVEAAGFSSMAVEVLNPVQQEYSVLRPTLLITLLQTLRENQHRRKPVKVFEAGNAVYLEDGEPRDEEKLALGVLDEEAGFEDVQAPLYAVLRIMGVDFEVEEASHPMFMEGRTAAVKVGGERLGYIGEVKPEVLEAFGLEYPVAAAEISLEVLARWTSRT”, the “soluble on expression in E. coli” value is reported as “not soluble”.
For “SAAAIAASALPGAFGRLVSVCSRSILASQGSGSASLWSASRRFNSQSASYPQGYVPKTSLSSPPWQEVVLPDPVEETRHHAEVVKRVNELIATGQYGRLFAVVHFASHQWKVTAEDLILIENELDIKCGERIRLEKVLLVGADNFTLLGKPLLRKELVRVEATVIEKTESWPKINMKFRKRKNFRKKKIIVNPQTILRINTIEIAPRLL”, the “soluble on expression in E. coli” value was “soluble”.
In the case of “SAATVPATTRSDQTWDFSCNLDVSFESEEHALIAYTSLAVDKELQPDKVRRVMSVSNNKLSVHFEAIEARLLRASFSAFVDVLTLATRTIQEFGQK”, the “soluble on expression in E. coli” value is reported as “soluble”.
